Test results taken from publication PMC10307831, “GATA zinc finger protein p66β promotes breast cancer cell migration by acting as a co-activator of Snail”.

Columns and labels:
GST-Snail;Flag-p66β = GST-Snail;Flag-p66β (human?;human?, UniProt O95863;Q8WXI9 1-264;1-593, |); experiment: pull-down; p66β enhanced Snail binding; EMSA: 10 mM Tris pH 7.5, 50 mM KCl, 1 mM DTT, 5 mM MgCl2, 2.5% glycerol, 0.05% NP-40, 50 ng/ul poly(dI.dC), 600 fmol probe, 12 ug GST protein in 20 ul; gel 6% 0.5x TBE 4 C. Pull-down: NeutrAvidin beads, 8 h 4 C, washed in IP buffer (50 mM Tris pH 7.5, 150 mM NaCl, 1% Triton X-100); details: protein: recombinant;recombinant; tags: N-terminal GST (pGEX-4T-1);Flag; label: biotin (probe); blunt
[1] = biological target: GST-Snail-ΔZn (zinc finger mutant) (UniProt O95863 1-264, H176D;C180A;C210D;H230D;H252D;C259A); experiment: pull-down; EMSA: 10 mM Tris pH 7.5, 50 mM KCl, 1 mM DTT, 5 mM MgCl2, 2.5% glycerol, 0.05% NP-40, 50 ng/ul poly(dI.dC), 600 fmol probe, 12 ug GST protein in 20 ul; gel 6% 0.5x TBE 4 C. Pull-down: NeutrAvidin beads, 8 h 4 C, washed in IP buffer (50 mM Tris pH 7.5, 150 mM NaCl, 1% Triton X-100); details: protein: recombinant; tags: N-terminal GST; label: biotin (probe); blunt
Sequence of GST-Snail-ΔZn (zinc finger mutant) (O95863 whole entry H176D/C180A/C210D/H230D/H252D/C259A): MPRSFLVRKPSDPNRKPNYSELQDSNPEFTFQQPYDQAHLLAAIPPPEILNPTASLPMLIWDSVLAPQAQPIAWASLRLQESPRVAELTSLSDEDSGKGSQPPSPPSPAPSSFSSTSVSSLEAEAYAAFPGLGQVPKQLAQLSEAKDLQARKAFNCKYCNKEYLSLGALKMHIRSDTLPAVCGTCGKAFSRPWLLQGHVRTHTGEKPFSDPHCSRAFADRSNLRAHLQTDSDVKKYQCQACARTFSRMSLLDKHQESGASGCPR

Sequence of GST-Snail;Flag-p66β (O95863 whole entry, chain 1 of 2): as the sequence (O95863 whole entry H176D/C180A/C210D/H230D/H252D/C259A) above, with D176H, A180C, D210C, D230H, D252H, A259C counted along it
Sequence of GST-Snail;Flag-p66β (Q8WXI9 whole entry, chain 2 of 2): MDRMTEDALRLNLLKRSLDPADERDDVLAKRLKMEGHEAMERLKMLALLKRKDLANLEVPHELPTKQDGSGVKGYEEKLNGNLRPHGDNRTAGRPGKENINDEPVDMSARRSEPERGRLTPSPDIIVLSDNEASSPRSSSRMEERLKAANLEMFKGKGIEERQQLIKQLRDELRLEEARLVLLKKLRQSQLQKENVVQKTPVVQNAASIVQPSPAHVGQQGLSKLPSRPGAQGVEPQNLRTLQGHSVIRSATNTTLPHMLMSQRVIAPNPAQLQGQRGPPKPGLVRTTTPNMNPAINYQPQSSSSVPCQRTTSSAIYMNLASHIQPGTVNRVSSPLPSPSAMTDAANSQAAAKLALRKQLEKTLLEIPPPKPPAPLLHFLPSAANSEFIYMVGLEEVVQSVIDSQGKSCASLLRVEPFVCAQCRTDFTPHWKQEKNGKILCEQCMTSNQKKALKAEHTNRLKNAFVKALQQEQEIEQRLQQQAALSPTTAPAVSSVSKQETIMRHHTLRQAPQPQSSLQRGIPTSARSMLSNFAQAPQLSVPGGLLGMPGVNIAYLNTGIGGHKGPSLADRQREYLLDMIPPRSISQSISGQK

B1: COL6A2-G-box-WT (dsDNA)
DNA 1: GGCCCCCTCCTCCCATCCGCG
DNA 2: CGCGGATGGGAGGAGGGGGCC
- binding result (GST-Snail;Flag-p66β): binds
- binding result [1]: no binding
